Laboratory results published in the nanobody polyreactivity screen of Harvey et al. (2022).

Experiment: yeast display, Sf9 membrane polyspecificity reagent, FACS + sequencing; frameworks hold sequencing errors
How it was run: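 Synthetic nanobody libraries on Saccharomyces cerevisiae BJ5465 were galactose-induced for 36–48 hours, stained 1 hour at 4 °C with 10% biotinylated, detergent-solubilized Sf9 membrane reagent and enriched on streptavidin microbeads. FACS then separated cells into low and high (top ~1%) gates by anti-HA (expression) and streptavidin (reagent binding) fluorescence. Genes were colony-PCR amplified, MiSeq 2 × 250 sequenced and CDR-length filtered. A clone's polyreactivity label is that of its gate of origin.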
In the case of “QVQLVESGGGLVQAGGSLRLSCAASGITLFHYVKGWYRQAPGKERELVADITWRGGNTFYADSVKGRFTISRDNAKNTVYLQMNSLKPEDTAVYYCAVRQAYRTRDYDYWGQGTQVTVSS”, the “polyreactivity (PSR sort gate)” value is reported as “high polyreactivity”.
With “QVQLVESGGGLVQAGGSLRLSCAASGITLFHYVMGWYRQAPGKERELVAVISSSGGSTYYADSVKVRFTISRDNAKNSVYLHMNSLKQVDTAVYYGAAKRYNYWGQGTQVTVSS” the “polyreactivity (PSR sort gate)” value was “high polyreactivity”.
In the case of “QVQLVESGGGLVQAGGSLRLSCAASGITLGAYAMGWYRQAPGKERELVAAISRSGGSTYYADSVKGRFTISRDNAKNTVYLQMNSLKPEDTAVYYCNAGITHGYDYWGQGTQLTVSS”, the “polyreactivity (PSR sort gate)” value is reported as “high polyreactivity”.
In the case of “QVQLVESGGGLVQAGGSLRLSCAASGITLGGNGMGWYRQAPGKERELVAAISQSGGTTYYADSVKGRFTISRDNAKNTVYLQMNSLKPEDTAVYYCNALWRGHGRYNYWGQGTQVTVSS”, the “polyreactivity (PSR sort gate)” value is reported as “low polyreactivity”.
In the case of “QVQLVESGGGLVQAGGSLRLSCAASGITLGRYAMGWYRQAPGKERALVAAIPRSGGSTYYADSVKGRFTISRDNAKNTVYLQMNSLKPEDTAVYYCNRRVYPTSDYDYWGQGTQVTVSS”, the “polyreactivity (PSR sort gate)” value is reported as “high polyreactivity”.
With “QVQLVESGGGLVQAGGSLRLSCAASGITLGYYAMGWYRQAPGKERELVAAISYRGGNTYYADSVKGRFTISRDNAKNTVYLQMNSLKPEDTAVYYCNADLGYESGWWSKYDYWGQGNQVTVSS” the “polyreactivity (PSR sort gate)” value was “low polyreactivity”.
In the case of “QVQLVESGGGLVQAGGSLRLSCAASGITLGYYVMGCYRPAPGKERELVAAISSSGGRTYYADSVKGRFTISRDTAKNTVYLQMNCLKPEDTAVYYCAADVGRGIYDYWGQGNQVTVSS”, the “polyreactivity (PSR sort gate)” value is reported as “low polyreactivity”.
For “QVQLVESGGGLVQAGGSLRLSCAASGITLKRYAMGWYRQAPGTERELVAAITTSGGSTYYADSVKGRFTISRDTAKNTVYLQMNSLKPEDTAVYYCNAEDYWGKYYYWGQGTQVTVSS”, the “polyreactivity (PSR sort gate)” value was “low polyreactivity”.
For “QVQLVESGGGLVQAGGSLRLSCAASGITLLVNAMGWYRQAPGKERELVAAISGSSGGSTYYADSVKGRFTISRDNAKNTVYLQMNSLKPEDTAVYYCAKRKWYWGLSYIYDSWGQGTQVTVSS”, the “polyreactivity (PSR sort gate)” value was “low polyreactivity”.
With “QVQLVESGGGLVQAGGSLRLSCAASGITLRYYAMGWYRQAPGKERELVAAITYSGTNTRYADSVKGRFTISRDNAKNTVYFQMNSLKPEDTAVYYCAARNGFGSPQMGYWGQGTQVTVSS” the “polyreactivity (PSR sort gate)” value was “high polyreactivity”.
With “QVQLVESGGGLVQAGGSLRLSCAASGITLSIYAMGWYRQAPGKERELVAAINGNGGSTYYADSVKGRFTISRDNAKNTVYLQMNSLKPEDTAVYYCAVTDYVYEHDDYWGQGTEVTVSS” the “polyreactivity (PSR sort gate)” value was “low polyreactivity”.
With “QVQLVESGGGLVQAGGSLRLSCAASGITLSLYAMGWYRQAPGKERELVAAISRGGGRTYYADSVKGRFTISRDNAKNTVYLQMNSLKPEDTAVYYCNAYRRSYRWYGDLGEYWGQGTQVTVSS” the “polyreactivity (PSR sort gate)” value was “high polyreactivity”.
In the case of “QVQLVESGGGLVQAGGSLRLSCAASGITLTIYTMGWYRQAPGKERELVAAINWSGTRTYYADSVKGRFTISRDNAKNTVYFQMNSLKPEDTAVYYCAATTYRYPNILGYDYWGQGTQVSVSS”, the “polyreactivity (PSR sort gate)” value is reported as “high polyreactivity”.
In the case of “QVQLVESGGGLVQAGGSLRLSCAASGITLTRYAMGWYRQAPGKERELVAAITWSGGSTYYADSVKGRFTISRDNAKNTVYLQMNSLKPEDTAVYYCAAEYYEWVFWGYDYWGQGTQVTVSS”, the “polyreactivity (PSR sort gate)” value is reported as “high polyreactivity”.
For “QVQLVESGGGLVQAGGSLRLSCAASGITLVANTMGWYRQAPGKERELVATITSSGGSTYYADSVKGRFTISRDNAMNTVYLQMISLKPEDTAVYYCAASDLRYRGNYVYLPSEYWGQGTQVNVSS”, the “polyreactivity (PSR sort gate)” value was “low polyreactivity”.
For “QVQLVESGGGLVQAGGSLRLSCAASGITLYFYAMGWYRQAPGKERELVAAISRGGRTYYADSVKGRFTISRDNAKNTVYLQMNSLKPEDTAVYYCAARYTSEYSAFDYWGQGTQVTVSS”, the “polyreactivity (PSR sort gate)” value was “low polyreactivity”.
With “QVQLVESGGGLVQAGGSLRLSCAASGITLYFYAMGWYRQAPGKERELVAGISGSVGSTHYADSVKGRFTISRDNAKNTVYLQMNSLKPEDTAVYYCAARYPFLRPKVNYWGQGTQVTVSS” the “polyreactivity (PSR sort gate)” value was “high polyreactivity”.
With “QVQLVESGGGLVQAGGSLRLSCAASGITLYGYAMGWYRQAPGKEREFVAAISRSGDRTYYADSVKGRFTISRDNAKNTVYLQMNSLKPEDTAVYYCNAWRYDYWGQGTQVTVSS” the “polyreactivity (PSR sort gate)” value was “high polyreactivity”.
For “QVQLVESGGGLVQAGGSLRLSCAASGITLYRYVMGWYRQAPGKERELVADISGRGTSTYYADSVKGRFTISRDNAKNTVYLQMNSLKPEDTAVYYCNAEYTKTGALVIPYTYYYAEDYWGQGTQVTVSS”, the “polyreactivity (PSR sort gate)” value was “low polyreactivity”.
For “QVQLVESGGGLVQAGGSLRLSCAASGITLYYYTMGWYRQAPGKERELVAAISGSGGSTYYADSVKGRFTISRDNAKNTVYLQMNSLKPEDTAVYYCNTARSLKNHFYKYDYWGQGTQVTVSS”, the “polyreactivity (PSR sort gate)” value was “high polyreactivity”.
In the case of “QVQLVESGGGLVQAGGSLRLSCAASGITSQSYAMGWYRQAPGKERELVAGISASGGRTFYADSVKGRFTISRDNAKNTVYLQMNSLKPEDTAVYYCNKLSSDSYNYWGQGTQVTVSS”, the “polyreactivity (PSR sort gate)” value is reported as “high polyreactivity”.
For “QVQLVESGGGLVQAGGSLRLSCAASGITSSAYAMGWYRQAPGKERELVARITWSGGRTHYADSVKGRFTISRDNAKNTVYLQMNSLKPEDTAVYYGYWLGYKEDDYWGQGTQVTVSS”, the “polyreactivity (PSR sort gate)” value was “high polyreactivity”.
With “QVQLVESGGGLVQAGGSLRLSCAASGITSSRYAMGLYRQAPGKVRELVAAISSSGGSTYYADSVKGRFTSSRDNAKTTVYLQLISLKPEDTAVYYCNVVSTRLAKYTFGFWGQGTQVTVSS” the “polyreactivity (PSR sort gate)” value was “high polyreactivity”.
With “QVQLVESGGGLVQAGGSLRLSCAASGITSYPYAMGWYRQAPGKERELVAAISKRGGGTYYADSVKGRFTISRDNAKNTVYLQMNSLKPEDTAVYYCAKSWGPTTYKIVPAYGYWGQGTQVTVSS” the “polyreactivity (PSR sort gate)” value was “high polyreactivity”.
In the case of “QVQLVESGGGLVQAGGSLRLSCAASGITYDKYAMGWYRQAPGKERELVAAITKSSGSTYYADSVKGRFTISRDNAKNTVYFQMNSLKPEDTAVYYCAAGIVYGYYYWGQGTQVTVSS”, the “polyreactivity (PSR sort gate)” value is reported as “high polyreactivity”.
For “QVQLVESGGGLVQAGGSLRLSCAASGIYGYNAMGWYRQAPGKERELVAAITSSGTSTYYADSVKGRFTISRDNAKNTVYLQMNSLKPEDTAVYYCAALHSGTWTGYGYWGQGTQVTVSS”, the “polyreactivity (PSR sort gate)” value was “low polyreactivity”.
With “QVQLVESGGGLVQAGGSLRLSCAASGLALGWYRQAPGKERELVAVITSDGRTYYADSVKGRFTISRDNAKNTVYLQLNSLKPEDTAVYYCARDSRTIRYYAWFYPFRYDYWGQGTQVTVSS” the “polyreactivity (PSR sort gate)” value was “low polyreactivity”.
With “QVQLVESGGGLVQAGGSLRLSCAASGLFFSYYAMGWYRQAPGKERELVAAINSGGSTYYADSVKGRFTISRDNAKNTVYLQMNSLKPEDTAVYYCAAHLWYHGHLFDYWGQGTQVTVSS” the “polyreactivity (PSR sort gate)” value was “high polyreactivity”.
For “QVQLVESGGGLVQAGGSLRLSCAASGLICGFYAMGWYRQAPGKERELVADITTSGARTYYADSVKGRFTISRDNAKNTVYLQMYSLKPEDTAVYYCNKDHSSYGASGYDYWGQGTQVTVSS”, the “polyreactivity (PSR sort gate)” value was “low polyreactivity”.
With “QVQLVESGGGLVQAGGSLRLSCAASGLICTYYAMGWYRQAPGKEWEFVAGISKSTSSTYYADSVKGRFTISRDNAKNTVYLLMISLKPEDTAVYYCAAQGGRNRGYRYYWGQGTQVTLSS” the “polyreactivity (PSR sort gate)” value was “high polyreactivity”.
In the case of “QVQLVESGGGLVQAGGSLRLSCAASGLIFADNAMGWYRQAPGKEWELVASITLGDTSTYYADSVKGRFTISRYNAKNTVYLQMNSLKPEDTAVYYCAKDVYPSVSLYELPDDYWGQGTQVTVSS”, the “polyreactivity (PSR sort gate)” value is reported as “low polyreactivity”.
For “QVQLVESGGGLVQAGGSLRLSCAASGLIFADYVMGWYRQAPGKERELVVTINQGGGSTYYADSVKGRFTISRDNAKNTVYLQMNSLKPEDTAVYYCAATWALLYAIFESYDYWGQGTQVTVSS”, the “polyreactivity (PSR sort gate)” value was “low polyreactivity”.
